Measured values as given in patent US20220403001A1, “PDE5 DERIVED REGULATORY CONSTRUCTS AND METHODS OF USE IN IMMUNOTHERAPY” (Obsidian Therapeutics, Inc., priority 2018, published 2022).

Columns and labels:
[1] = biological target: T1, hPDE5 mutants (Homo sapiens, UniProt O76074); assay: GFP FACS analysis of hPDE5 mutant library clones in NIH3T3 cell pools; details: experiment 1; for Stabilization ratio: GFP intensity 10 μM vardenafil vs DMSO; for Destabilizing mutation co-efficient: GFP intensity mutant vs PDE5 wildtype construct in absence of ligand; for MFI 10 μM VDF / MFI DMSO: GFP, NIH3T3 cell pools; for MFI 10 μM VDF: 10 μM vardenafil 24 hr; for MFI DMSO: no ligand (DMSO)
Method: These constructs were packaged into lentivirus, transduced into NIH3T3 cells and select stable cell pools were derived as described below. […] Lentiviral stocks were used for transduction of NIH3T3 cells and subsequent cell pool selection. The day before transduction, NIH3T3 cells (1.8×10^6) were seeded in a T-25 flask and allowed to reach 60-70% confluency (˜1 day). The growth medium in the T-25 flask was then replaced with 1 mL virus (quickly thawed in a 37° C. water bath) and 5 μg/mL polybrene. […] Transduction medium was removed the following day and replaced with 5 mL fresh medium. At 48 hr after transduction, the medium was replaced with media containing 1 μg/mL puromycin. This puromycin medium was replaced every 3-4 days until cell pools were established (˜2 weeks).
The mean fluorescence intensity (MFI) of GFP at 100 μM concentration treatment was set as 100% hPDE5 stabilization effect (HPE), while DMSO treatment was set as 0% effect (ZPE) of hPDE5 stabilization. The effect of the compound on hPDE5 stabilization was calculated based on the following formula: % PDE5 stabilization effect=(MFI-ZPE)/(HPE-ZPE)×100.
Plots of the % effect versus concentration were generated with Graphpad Prism 5 and EC50 values were calculated using a four-parameter nonlinear regression model.
Select PDE5 clones from both experiment 1 and experiment 2 were directly compared. […] The stabilization ratio was calculated as the fold change in GFP intensity in ligand treated samples compared to treatment with DMSO (i.e. in the absence of ligand) with the same construct.

[2] = biological target: T1, hPDE5 mutants; assay: GFP MFI by FACS in HCT116 cells transduced with hPDE5 constructs; format: cell-based
Method: (§1) Desirable qualities of a DD include, low expression of the SRE in the absence of ligand and ligand dependent stabilization of the SRE. Constructs were generated using DDs linked to GFP using an SG linker. […] The mean fluorescence intensity (MFI) of GFP was analyzed by FACS. […] Destabilizing mutation coefficient less than 1 are desirable.
(§2) Mean fluorescence intensity (MFI) was measured by FACS. […] Destabilizing mutation coefficient ratios less than 1 are desirable.
(§3) Mean fluorescence intensity (MFI) was measured by FACS. […] Destabilizing mutation co-efficient ratios less than 1 are desirable.
(§4) Mean fluorescence intensity (MFI) was measured by FACS. […] Destabilizing mutation coefficient less than 1 are desirable.
as §4
(§5) Mean fluorescence intensity (MFI) of GFP was measured by FACS.
(§6) Mean fluorescence intensity (MFI) was measured by FACS.
(§7) The media containing the ligand was removed and fresh media without the ligand was added.
(§8) The properties of the DDs were analyzed in the presence and absence of ligands via FACS as previously described.
(§9) GFP fluorescence was measured by FACS.
(§10) The properties of the DDs were analyzed via FACS both in the presence and absence of ligands.
as §9

[3] = test system: hPDE5 mutants; assay: as above; format: cell-based, human
Method: as §1, §2, §3, §4, §4, §5, §6, §7, §8, §9, §10, §9

[4] = Off-kinetics, time 50 hrs (ligand removed at 48 h)
[5] = Off-kinetics, time 52 hrs (ligand removed at 48 h)
[6] = Off-kinetics, time 54 hrs (ligand removed at 48 h)
[7] = Off-kinetics, time 56 hrs (ligand removed at 48 h)
[8] = Off-kinetics, time 60 hrs (ligand removed at 48 h)
[9] = Off-kinetics, time 72 hrs (ligand removed at 48 h)
[10] = Off-kinetics, time 80 hrs (ligand removed at 48 h)
[11] = Off-kinetics, time 96 hrs (ligand removed at 48 h)

“LibC000016: hPDE5 (Amino acid 535-860 of WT, Q743L), DD generated by random mutagenesis” was tested, and the “Stabilization ratio” value [1] was 2.4, the Destabilizing mutation co-efficient [1] was 0.51 and the “MFI 10 μM VDF” value [1] was 6869. For the same substance, the “MFI DMSO” value [1] was 2895.

With “LibC000017: hPDE5 (Amino acid 535-860 of WT, Y709H, F787V), DD generated by random mutagenesis” the “Stabilization ratio” value [1] was 2.9, the Destabilizing mutation co-efficient [1] was 0.39 and the “MFI 10 μM VDF” value [1] was 6530. The “MFI DMSO” value [1] was 2244.

With “LibC000018: hPDE5 (Amino acid 535-860 of WT, N605Y, I715K), DD generated by random mutagenesis” the “Stabilization ratio” value [1] was 3.0, the Destabilizing mutation co-efficient [1] was 0.18 and the “MFI 10 μM VDF” value [1] was 3102. For the same substance, the “MFI DMSO” value [1] was 1038.

For “LibC000019: hPDE5 (Amino acid 535-860 of WT, F564I, N662Y, H685L, L693P, F736I), DD generated by random mutagenesis”, the “Stabilization ratio” value [1] was 0.9, the Destabilizing mutation co-efficient [1] was 0.06 and the “MFI 10 μM VDF” value [1] was 285. For the same substance, the “MFI DMSO” value [1] was 320.

For “LibC000021: hPDE5 (Amino acid 535-860 of WT, V594I), DD generated by random mutagenesis”, the “Stabilization ratio” value [1] was 2.6, the Destabilizing mutation co-efficient [1] was 0.30 and the “MFI 10 μM VDF” value [1] was 4440. The “MFI DMSO” value [1] was 1732.

For “LibC000023: hPDE5 (Amino acid 535-860 of WT, E858V), DD generated by random mutagenesis”, the “Stabilization ratio” value [1] was 1.4, the Destabilizing mutation co-efficient [1] was 0.77 and the “MFI 10 μM VDF” value [1] was 6121. The “MFI DMSO” value [1] was 4386.

For “LibC000024: hPDE5 (Amino acid 535-860 of WT, T784I), DD generated by random mutagenesis”, the “Stabilization ratio” value [1] was 1.4, the Destabilizing mutation co-efficient [1] was 0.88 and the “MFI 10 μM VDF” value [1] was 6905. For the same substance, the “MFI DMSO” value [1] was 5039.

In the case of OT-001186: hPDE5 R732G AcGFP construct, the “GFP by FACS, Sildenafil 10 μM” value ([2]; hotspot constructs, HCT116) is reported as 288, the “GFP by FACS, Vardenafil 1 μM” value ([2]; hotspot constructs, HCT116) is reported as 854 and the “GFP by FACS, Sildenafil 0 μM (DMSO)” value ([3]; hotspot constructs, HCT116, DMSO control of Sildenafil) is reported as 298. The “GFP by FACS, Vardenafil 0 μM (DMSO)” value ([3]; hotspot constructs, HCT116, DMSO control of Vardenafil) was 176.

“OT-001216: hPDE5 wildtype construct linked to GFP” was tested, and the “Sildenafil Stabilization ratio” value ([2]; 10 μM, 48 h, HCT-116) was 1.03, the “Vardenafil Stabilization ratio” value ([2]; 10 μM, 48 h, HCT-116) was 1.04 and the “MFI Sildenafil” value ([2]; GFP, 10 μM Sildenafil 48 h, HCT-116) was 66860. For the same substance, the “MFI Vardenafil” value ([2]; GFP, 10 μM Vardenafil 48 h, HCT-116) was 67388, the “MFI DMSO” value ([3]; GFP, DMSO 48 h, HCT-116) was 64942 and the Stabilization ratio ([3]; Off-kinetics, time 48 hrs (after 48 h ligand treatment)) was 2.24. For the same substance, the MFI ([3]; Off-kinetics, time 48 hrs (after 48 h ligand treatment), HCT 116) was 102137, the MFI [3, 4] was 97225 and the Stabilization ratio [3, 4] was 2.14. The MFI [3, 5] was 96264, the Stabilization ratio [3, 5] was 2.12 and the MFI [3, 6] was 95410. It also gave a Stabilization ratio [3, 6] of 2.10, an MFI [3, 7] of 81733 and a Stabilization ratio [3, 7] of 1.80. For the same substance, the MFI [3, 8] was 84323, the Stabilization ratio [3, 8] was 1.85 and the MFI [3, 9] was 70151. The Stabilization ratio [3, 9] was 1.54, the MFI [3, 10] was 63208 and the Stabilization ratio [3, 10] was 1.39. It also gave an MFI [3, 11] of 55918, a Stabilization ratio [3, 11] of 1.23 and an MFI ([3]; Sildenafil 30 μM, 24 h, HCT116) of 75478. For the same substance, the Stabilization ratio ([3]; Sildenafil 30 μM, 24 h, HCT116) was 1.22, the MFI ([3]; Tadalafil 100 μM, 24 h, HCT116) was 58468 and the Stabilization ratio ([3]; Tadalafil 100 μM, 24 h, HCT116) was 1.60. For the same substance, the MFI ([3]; Vardenafil 30 μM, 24 h, HCT116) was 70898 and the Stabilization ratio ([3]; Vardenafil 30 μM, 24 h, HCT116) was 1.14.
